From patent US20150098945A1 (Daiichi Sankyo, published 2015)
Blank lines part the entries; values can stand above or below the binder they belong to.

Tests used:
[1] = target: T1, mouse ROBO4 (pCI-mROBO4-transfected HEK293 cells) (mouse, UniProt Q8C310 28-1012); assay: flow cytometry (FC500), HEK293 cells transfected with pCI-mROBO4, FITC goat anti-human IgG Fc; control histogram IgG (human IgG)
T1 sequence: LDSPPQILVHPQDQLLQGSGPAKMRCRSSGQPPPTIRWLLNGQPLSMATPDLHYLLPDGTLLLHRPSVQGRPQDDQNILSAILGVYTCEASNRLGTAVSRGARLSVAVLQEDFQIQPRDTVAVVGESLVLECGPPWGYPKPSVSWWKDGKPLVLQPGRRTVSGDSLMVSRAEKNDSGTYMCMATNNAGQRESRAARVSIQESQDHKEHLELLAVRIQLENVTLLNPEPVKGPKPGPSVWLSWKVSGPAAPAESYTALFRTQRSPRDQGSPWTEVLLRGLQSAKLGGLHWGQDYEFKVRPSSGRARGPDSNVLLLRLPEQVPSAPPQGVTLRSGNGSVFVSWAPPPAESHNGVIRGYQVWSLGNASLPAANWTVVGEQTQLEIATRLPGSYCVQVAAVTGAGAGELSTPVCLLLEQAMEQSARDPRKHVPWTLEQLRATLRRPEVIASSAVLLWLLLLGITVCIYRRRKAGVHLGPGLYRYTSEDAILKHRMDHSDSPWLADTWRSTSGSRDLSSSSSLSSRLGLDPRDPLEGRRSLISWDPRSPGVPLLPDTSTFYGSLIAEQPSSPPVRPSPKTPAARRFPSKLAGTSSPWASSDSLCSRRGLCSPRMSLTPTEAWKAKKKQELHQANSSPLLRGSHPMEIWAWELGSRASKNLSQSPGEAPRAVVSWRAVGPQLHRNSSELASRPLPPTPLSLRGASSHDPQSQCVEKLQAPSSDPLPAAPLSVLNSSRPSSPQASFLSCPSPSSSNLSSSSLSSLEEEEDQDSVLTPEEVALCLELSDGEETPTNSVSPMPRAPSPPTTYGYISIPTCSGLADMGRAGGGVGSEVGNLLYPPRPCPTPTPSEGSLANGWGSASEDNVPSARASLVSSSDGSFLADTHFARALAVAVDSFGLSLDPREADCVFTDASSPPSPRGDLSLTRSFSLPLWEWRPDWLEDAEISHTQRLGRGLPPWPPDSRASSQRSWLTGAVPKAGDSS

[2] = target: N-terminal FLAG-tagged human ROBO1 (pCI-FLAG-hROBO1-transfected HEK293 cells) (human, UniProt Q9Y6N7 58-1651); assay: flow cytometry, HEK293 cells transfected with pCI-FLAG-hROBO1, anti-mouse IgG FITC; control histogram IgG
Sequence of N-terminal FLAG-tagged human ROBO1 (pCI-FLAG-hROBO1-transfected HEK293 cells) (Q9Y6N7 other isoform, or with tags, fused parts or gaps): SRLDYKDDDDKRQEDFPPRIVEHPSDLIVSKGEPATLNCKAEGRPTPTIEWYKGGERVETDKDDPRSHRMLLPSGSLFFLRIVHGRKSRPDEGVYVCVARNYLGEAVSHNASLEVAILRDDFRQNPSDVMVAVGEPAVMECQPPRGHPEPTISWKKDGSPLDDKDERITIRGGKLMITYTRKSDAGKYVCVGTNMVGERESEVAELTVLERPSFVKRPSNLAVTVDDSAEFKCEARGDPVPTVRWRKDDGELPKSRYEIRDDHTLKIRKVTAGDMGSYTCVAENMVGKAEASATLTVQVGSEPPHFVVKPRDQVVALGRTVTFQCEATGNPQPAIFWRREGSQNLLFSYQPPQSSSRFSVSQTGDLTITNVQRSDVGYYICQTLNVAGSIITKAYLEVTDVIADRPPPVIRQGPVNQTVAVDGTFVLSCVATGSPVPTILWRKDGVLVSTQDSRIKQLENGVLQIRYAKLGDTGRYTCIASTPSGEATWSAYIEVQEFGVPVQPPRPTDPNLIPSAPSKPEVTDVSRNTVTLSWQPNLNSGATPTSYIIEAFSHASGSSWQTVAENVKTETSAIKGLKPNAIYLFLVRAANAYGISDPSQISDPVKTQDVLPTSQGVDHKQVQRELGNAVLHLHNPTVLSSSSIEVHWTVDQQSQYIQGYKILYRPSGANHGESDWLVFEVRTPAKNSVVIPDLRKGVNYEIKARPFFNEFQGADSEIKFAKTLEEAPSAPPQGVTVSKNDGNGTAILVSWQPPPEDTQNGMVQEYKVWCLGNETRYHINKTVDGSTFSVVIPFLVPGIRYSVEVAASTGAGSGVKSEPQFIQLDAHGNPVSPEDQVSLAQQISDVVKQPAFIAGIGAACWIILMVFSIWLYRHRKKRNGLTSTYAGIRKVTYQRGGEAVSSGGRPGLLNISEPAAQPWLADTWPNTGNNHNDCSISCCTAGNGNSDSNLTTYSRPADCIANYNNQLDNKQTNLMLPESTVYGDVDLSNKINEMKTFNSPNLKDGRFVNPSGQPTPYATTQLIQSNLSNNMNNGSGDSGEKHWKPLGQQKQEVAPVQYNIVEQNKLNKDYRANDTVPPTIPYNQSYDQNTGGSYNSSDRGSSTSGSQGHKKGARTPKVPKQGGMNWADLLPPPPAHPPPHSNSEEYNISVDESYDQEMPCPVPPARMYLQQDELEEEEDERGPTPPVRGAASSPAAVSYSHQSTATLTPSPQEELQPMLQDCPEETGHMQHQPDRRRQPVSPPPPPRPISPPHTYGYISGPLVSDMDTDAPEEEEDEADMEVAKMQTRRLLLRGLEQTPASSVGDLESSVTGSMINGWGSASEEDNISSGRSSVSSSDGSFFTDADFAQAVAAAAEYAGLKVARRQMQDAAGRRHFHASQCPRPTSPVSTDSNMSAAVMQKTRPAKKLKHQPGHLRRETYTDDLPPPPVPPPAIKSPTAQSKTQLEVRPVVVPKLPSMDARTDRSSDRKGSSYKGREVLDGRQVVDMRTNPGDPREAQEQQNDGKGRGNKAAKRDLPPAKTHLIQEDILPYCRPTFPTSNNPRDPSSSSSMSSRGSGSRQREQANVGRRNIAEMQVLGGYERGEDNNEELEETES
Protocol: HEK293 cells were inoculated at a concentration of 1.2×10⁶ cells/dish or 1.5×10⁶ cells/dish to a 60-mm dish (manufactured by Corning Inc.) and cultured overnight in a DMEM medium containing 10% FBS at 37° C. under 5% CO₂ conditions. On the next day, the HEK293 cells were transfected with pCI-hROBO4, pCI-FLAG-hROBO1, pCI-hROBO2, or pCI-hROBO3 using FuGENE6 Transfection Reagent and further cultured overnight at 37° C. under 5% CO₂ conditions. On the next day, the expression vector-transfected cells were treated with TrypLE Express (manufactured by Life Technologies Corp.), washed with PBS containing 5% FBS, and then suspended in PBS containing 5% FBS. The obtained cell suspension was used in flow cytometry analysis.
Each cell suspension prepared in 4)-4-1 was centrifuged, and the supernatant was removed. […] Data was analyzed using Flowjo. The histogram of FITC fluorescence intensity was prepared. The antibody was determined to bind in a specific manner when the histogram of MAb1 was shifted to a stronger fluorescence intensity region compared with the histogram of the negative control Mouse IgG1 or Mouse IgG2a. […]

binding result [1]: no binding (tested: 10 µg/mL)
B1: humanized MAb1 antibody H-1143 (antibody, human IgG2, kappa, V domains shown)
VH: EVQLVESGGGLVQPGGSLRLSCAASGFTFSTYAMSWVRQAPGKGLEWVATISQGGTYTYYPDSVKGRFTISRDNAKNTLYLQMNSLRAEDTAVYYCARLIYYDYLDYWGQGTLVTVSS
VL: DIVMTQSPLSLPVTLGEPASISCRSSQSLENENKNLYLNWYLQKPGQSPQLLIYRVSNRFSGVPDRFSGSGSGTDFTLKISRVEAEDVGVYYCLQVTHVPWTFGPGTKVDIKR
notes: Human IgG2 / kappa constant regions; also called hMAb1-H2-type heavy chain + hMAb1-L2-type light chain

binding result [2]: no binding (tested: 10 µg/mL)
B2: anti-ROBO4 mouse monoclonal antibody MAb1 (antibody, mouse IgG1, V domains shown)
VH: EVQLVESGGGLVKPGGSLKLSCAASGFTFSTYAMSWVRQTPEKRLEWVATISNGGTYTYYPDSVKGRFTISRDNAENTLYLQMSSLRSEDTAMYFCARLIYYDYLDYWGHGTTLTVSS
VL: DAVMTQTPLSLPVSLGDQASISCRSSQSLENSNGNTYLNWYFQKPGQSPQLLIYRVSNRFSGVLDRFSGSGSGTDFTLKISRVEAEDFGVYFCLQVTHVPWTFGGGTKLEIKR
notes: Mouse IgG1 (gamma1), kappa light chain, purified from hybridoma supernatant; also called parent antibody MAb1
